Numbering of substitutions follows the chain as printed. Numbers in names are those of the source. Read-outs that look alike come from different tables or passages of the source.
Experiments:
Ad3-GFP virus [1] = details: previous studies (37, 41, 42); cited from earlier work
DSG2 [2] = biological target: T1, DSG2 (Homo sapiens, UniProt Q14126); details: previous studies (37, 41, 42); cited from earlier work
T1 construct: Western blot using soluble recombinant DSG2 as a probe; purchased Leinco Technologies, Inc. (St. Louis, MO)
T1 sequence (Q14126 50-609 limits assumed): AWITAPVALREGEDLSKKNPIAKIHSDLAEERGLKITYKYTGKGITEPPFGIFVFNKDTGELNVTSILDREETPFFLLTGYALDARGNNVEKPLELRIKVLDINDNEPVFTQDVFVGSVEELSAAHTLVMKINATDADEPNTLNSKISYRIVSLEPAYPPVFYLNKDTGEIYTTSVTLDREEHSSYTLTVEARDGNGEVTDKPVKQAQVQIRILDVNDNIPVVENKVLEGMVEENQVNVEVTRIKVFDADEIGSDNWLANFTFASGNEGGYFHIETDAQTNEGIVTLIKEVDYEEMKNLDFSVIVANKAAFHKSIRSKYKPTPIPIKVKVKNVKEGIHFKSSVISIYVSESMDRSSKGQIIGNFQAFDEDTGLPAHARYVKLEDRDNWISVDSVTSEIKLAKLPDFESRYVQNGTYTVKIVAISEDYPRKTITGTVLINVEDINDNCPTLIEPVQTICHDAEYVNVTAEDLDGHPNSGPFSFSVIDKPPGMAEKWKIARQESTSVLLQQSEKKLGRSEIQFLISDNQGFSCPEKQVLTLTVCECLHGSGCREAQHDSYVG

[3] = system: polarized colon cancer T84 cells; details: previous studies (37, 41, 42); cited from earlier work
DSG2 [4] = biological target: T1, DSG2; assay: Surface plasmon resonance of Ad3 fiber knobs on immobilized DSG2; type: binding; details: knobs without dimerization domain
Procedure: FIG. 7A-7B. SPR analysis of non-dimerized Ad3 fiber knob interactions with DSG2. FIG. 7A) DSG2 was immobilized on sensorchips, and background was automatically subtracted from the control flow cell. The Ad3 fiber knobs (w/o dimerization domain: “noDD”) were injected for 3 minutes at 2.5 μg/ml followed by a 2.5 minutes dissociation period. FIG. 7B) Summary of SPR data. […] The extracted data are resumed in the table. Wt=Ad3 fiber knob without mutations FIG. 8A-8G. Electron microscopy and 3D structure of Ad3 fiber knob mutant JO-2.
Surface Plasmon Resonance: Acquisitions were done on a BIAcore 3000 instrument. HBS-N (GE-Healthcare, Pittsburgh, PA) supplemented with 2 mM CaCl2) was used as running buffer in all experiments at a flow rate of 5 [l/min. Immobilization on CM4 sensorchip (BIAcore) was performed using DSG2 at 10 μg/ml diluted in 10 mM Acetate buffer pH 4.5 injected for 10 minutes on ethyl(dimethylaminopropyl) carbodiimide (EDC)/N-Hydroxysuccinimide (NHS) activated flow-cell. A control flow-cell was activated by (EDC/NHS) and inactivated by ethanolamine. Different concentrations of Ad3 fiber knob proteins were injected for 3 minutes association followed by 2.5 minutes dissociation time, and the signal was automatically subtracted from the background of the ethanolamine deactivated EDC-NHS flow cell. Kinetic and affinity constants were calculated using the BIAeval software.

soluble recombinant DSG2 = biological target: T2, soluble recombinant DSG2 (Homo sapiens, UniProt Q14126); assay: Western blot of dimeric Ad3 fiber knob mutants with soluble recombinant DSG2 as probe; type: binding; details: dimerized knob mutants compared to JO-1
T2 construct: Western blot using soluble recombinant DSG2 as a probe; purchased Leinco Technologies, Inc. (St. Louis, MO)
T2 sequence (Q14126 50-609 limits assumed): T1 sequence (Q14126 50-609 limits assumed)
From the text: FIG. 1A-1F. Residues found to be critically involved in binding to DSG2. FIG. 1A) Shown are the amino acid sequences of the Ad3 and Ad14p1 fiber knob. Beta sheets present in the Ad3 knob (PDB accession number 1H7Z_A) and Ad14 knob (PDB: 3F0Y_A) are indicated by lines. Black arrows indicate residues within the Ad3 fiber knob which, when mutated individually, ablate or reduce binding to DSG2. […] FIG. 1B) Schematic structure of dimeric Ad3 fiber knob mutants. The fiber knob domain and one shaft motif was fused through a flexible linker to a homodimerizing K-coil domain (41). The proteins are self-dimerizing and can be purified by His-Ni-NTA affinity chromatography. FIG. 1C-FIG. 1F) Analysis of binding of dimeric Ad3 fiber knob mutants to soluble DSG2. FIG. 1C and FIG. 1D) Coomassie staining. 10 μg of purified Ad3 fiber knob (unboiled) were loaded per lane. Trimeric forms of the fiber knobs are indicated by an arrow. The gel contained SDS and the loading buffer containing DTT, which caused the disassembly of dimers of trimeric fiber knobs as previously reported (41). FIG. 1E and FIG. 1F): Western blot using soluble recombinant DSG2 as a probe, followed by anti-DSG2-mAb and anti-mouse IgG-HRP. For comparison, JO-1 (0.5 μg/lane) is shown. The Western blots were scanned and signals were quantified.
Western Blot: Mini-PROTEAN precast gels (BIO-RAD, Hercules, CA) with 4-15% gradient polyacrylamide were used. A total of 1 μg protein mixed with 2× loading buffer (10 mM Tris-HCl, pH6.8, 200 mM DTT, 4% SDS, 20% glycerol, 0.2% bromophenol blue) was loaded per lane. Samples were either boiled (B) for 5 min or loaded unboiled (UB). The following running buffer was used: 25 mM Tris, pH8.3, 0.192 M glycine, 0.1% SDS. After electrophoresis, proteins were transferred to nitrocellulose and incubated with recombinant human DSG2 protein and anti-DSG2 antibodies as described previously (42). The Western blots were scanned and quantified using the ImageJ 1.32 software (National Institutes of Health, Bethesda, MD). JO-1 band intensity was set as 100%. […]

Ad3-GFP virus [5] = assay: Competition of Ad3-GFP virus infection on HeLa cells; type: cell-based, adenovirus serotype 3
Procedure: (§1) FIG. 3A-3D. Competition of Ad3 virus by dimerized Ad3 knob mutants. FIG. 3A) Relative attachment of ^3H-labeled Ad3 virus in the presence of dimeric fiber knob mutants. 1.8×10^5 HeLa cells were incubated with Ad3 knob mutants at a concentration of 2.5 and 100 μg/ml on ice for 1 hour. Then 400 pfu/cell of ^3H-Ad3 virus was added on ice for another hour. Unbound virus particles were washed away. Attachment of virus particles incubated with PBS was taken as 100%. N=3. FIG. 3B1-3B2) Competition of Ad3-GFP virus infection on HeLa cells. 1.5×10^5 HeLa cells were seeded into 24 well plates. Cells were incubated with the Ad3 knob mutants at increasing concentrations for one hour at room temperature. 100 pfu/cell of Ad3-GFP virus were then added and GFP expression was analyzed 18 hours later by flow cytometry. FIG. 3B1) percentage of GFP positive cells. FIG. 3B2) mean fluorescence intensity. N=3. The standard deviation was less than 10%. FIG. 3C) Relative attachment of ^3H-labeled Ad3 virus in the presence of dimeric fiber knob mutants with multiple mutations. The study was performed as described in FIG. 3B) The standard deviation was less than 10%. FIG. 3D) Competition of Ad3-GFP virus infection on HeLa cells. The study was performed as described in FIG. 3C) The standard deviation was less than 10%.
FIG. 9A1-9C. Analysis of dimeric Ad3 fiber knob mutants with increased affinity to DSG2. FIG. 9A1-9A2) Competition of Ad3-GFP virus infection on HeLa cells with dimeric affinity-enhanced mutant Y250F and JO-1 (dimeric wt Ad3 fiber knob). The experimental setting is as described for FIG. 3C. FIG. 9A1) percentage of GFP positive cells. FIG. 9A2) mean fluorescence intensity. N=3. The standard deviation was less than 10%. […] 100 pfu/cell of Ad3GFP virus were then added and GFP expression was analyzed 18 hours later. […]
Functional validation. […] Transduction was measured based on GFP expression (FIG. 3B). […] Dimeric Ad3 knob mutants with combined mutations were also analyzed for their ability to compete with Ad3 virus for attachment (FIG. 3C) and infection (FIG. 3D).

3H-labeled Ad3 virus = assay: Competition of 3H-labeled Ad3 virus attachment to HeLa cells; type: cell-based, adenovirus serotype 3
Procedure: as §1, with “The study was performed as described in FIG. 3B) The standard deviation was less than 10%. FIG. 3D) Competition of Ad3-GFP virus infection on HeLa cells. The study was performed as described in FIG. 3C) The standard deviation was less than 10%.” left out
Competition assays. […] After the last wash, the supernatant was removed and the cell-associated radioactivity was determined by a scintillation counter. The number of VP bound per cell was calculated by using the virion specific radioactivity and the number of cells.

[6] = even at concentrations of 200 ug/ml

B1: Ad3 knob monomer: Recombinant (trimeric) fiber knob with two shaft motifs, but without the dimerization domain (protein)
chain: NKLCSKLGNGLTFDSSNSIALKNNTLWTGPKPEANCIIEYGKQNPDSKLTLILVKNGGIVNGYVTLMGASDYVNTLFKNKNVSINVELYFDATGHILPDSSSLKTDLELKYKQTADFSARGFMPSTTAYPFVLPNAGTHNENYIFGQCYYKASDGALFPLEVTVMLNKRLPDSRTSYVMTFLWSLNAGLAPETTQATLITSPFTFSYIREDD
modifications: left off: small tags and cut ends
notes: Recombinant (trimeric) fiber knob with two shaft motifs, but without the dimerization domain
- Block of Ad3 infection (Ad3-GFP virus [1]): not able to block Ad3 infection
- Affinity of binding to DSG2 relative to JO-1 (DSG2 [2]): orders of magnitude less than JO-1
- Junction opening [3]: does not trigger junction opening

B2: N293S/noDD (protein)
chain: B1 chain with N186S
modifications: left off: small tags and cut ends
- association rate to DSG2, in words (DSG2 [4]): lowest when compared to other mutants
- dissociation rate, in words (DSG2 [4]): slower dissociation rate

B3: F265L (protein)
chain: MKVSALKEKVSALKEKVSALKEKVSALKEKVSALKEGSGGGSGGGSGGGSNSIALKNNTLWTGPKPEANCIIEYGKQNPDSKLTLILVKNGGIVNGYVTLMGASDYVNTLFKNKNVSINVELYFDATGHILPDSSSLKTDLELKYKQTADFSARGFMPSTTAYPFVLPNAGTHNENYIFGQCYYKASDGALLPLEVTVMLNKRLPDSRTSYVMTFLWSLNAGLAPETTQATLITSPFTFSYIREDD
- DSG2 binding in Western blot, in words (soluble recombinant DSG2): almost completely ablated
- Inhibition of Ad3-GFP infection of HeLa cells, in words (Ad3-GFP virus [5]; pre-incubation with knob, GFP expression): least reduced

B4: N186D, D261N, L296R: dimeric Ad3 fiber knob with a combination of all three N186D, D261N, and L296R (protein)
chain: B3 chain with N113D, D188N, L192F, L223R
- DSG2 binding in Western blot, in words (soluble recombinant DSG2): highest level of ablation
- Block of Ad3 infection (Ad3-GFP virus [5]; [6]): did not block
- Inhibition of attachment in the presence of dimeric knob (JO-1 = 100%) (3H-labeled Ad3 virus; Ad3 virus attachment to HeLa cells, N=3, averages): 18.5%
- Block of Ad3 binding (attachment) (3H-labeled Ad3 virus; [6]): did not block

Reference: patent publication US12466859B2, “Desmoglein 2 (DSG2) binding proteins and uses therefor” (UNIVERSITY OF WASHINGTON THROUGH ITS CENTER FOR …, priority 2013, dated 2025)
